The text below walks through data of publication PMC9076864, “Cryo-EM structures of thylakoid-located voltage-dependent chloride channel VCCN1” (Nature Communications, 2022).

This data set deals with the molecule itself. The experiment in a line: cryo-EM structure; single-particle cryo-EM of the channel reconstituted in MSP1E3D1/SoyPC nanodiscs; 50 mM Tris pH 8.0, 150 mM NaCl; C5 symmetry imposed.

B1: Malus domestica VCCN1, N-terminally truncated "wild-type" construct (natural protein)
chain: MPNPSPPSSSSPVQTLISILRIIPDWSDRTQERGMRQHRTLYDHEKWMHHRSSYRHLRHLLSSLSSRVILSLIPPVIAFTLVAVVIASYNTAVALDLLPGIFPLLRSSSLPYQLTAPALALLLVFRTEASYSRFEEGRKAWTEVIAGANDFARQIISSVETSGDAQLKKALLQYIVAFPVALKCHVIYGSDIARDLQNLLEVDDLLVVLNSKHRPGCIIQFISRSLQLLKLEESRRIMLQSKISCFHEGIGICEQLIGTPIPLSYTRLTSRFLVLWHLTLPIILWDDCHWIVVPATFISAASLFCIEQVGVLIEEPFPMLALDDLCNSVRNNVQEALASEKLIRARLAAKGRIQSEQQFQNGQPRPENLYFQ
For orientation: stoichiometry N means a count of units in the complex or per binding partner. For B1, the “stoichiometry N” value stood at 5.
